# Reference: the supplement of paper PMC11246515
# ± gives the standard deviation of the averaged measurements.
# Test: total protein half-life in vivo (active degradation + dilution); higher = more stable protein
# [1] = E. coli NCM3722 delta-clpP delta-lon delta-hslV, growth: N-lim chemostat, doubling time 6 h
# [2] = E. coli NCM3722 delta-clpP, growth: N-lim chemostat, doubling time 6 h
# [3] = E. coli NCM3722 delta-hslV, growth: N-lim chemostat, doubling time 6 h
# [4] = E. coli NCM3722 delta-lon, growth: N-lim chemostat, doubling time 6 h
# [5] = E. coli NCM3722 delta-smpB, growth: N-lim chemostat, doubling time 6 h
# [6] = wild type E. coli NCM3722, growth: C-lim chemostat, doubling time 3 h
# [7] = wild type E. coli NCM3722, growth: C-lim chemostat, doubling time 6 h
# [8] = wild type E. coli NCM3722, growth: C-lim chemostat, doubling time 12 h
# [9] = wild type E. coli NCM3722, growth: N-lim chemostat, doubling time 6 h
# [10] = wild type E. coli NCM3722, growth: N-lim chemostat, doubling time 12 h
# [11] = wild type E. coli NCM3722, growth: P-lim chemostat, doubling time 6 h
# [12] = wild type E. coli NCM3722, growth: P-lim chemostat, doubling time 12 h
Sequence,total protein half-life in vivo [1] [h],total protein half-life in vivo [2] [h],total protein half-life in vivo [3] [h],total protein half-life in vivo [4] [h],total protein half-life in vivo [5] [h],total protein half-life in vivo [6] [h],total protein half-life in vivo [7] [h],total protein half-life in vivo [8] [h],total protein half-life in vivo [9] [h],total protein half-life in vivo [10] [h],total protein half-life in vivo [11] [h],total protein half-life in vivo [12] [h]
MSEKHPGPLVVEGKLTDAERMKHESNYLRGTIAEDLNDGLTGGFKGDNFLLIRFHGMYQQDDRDIRAERAEQKLEPRHAMLLRCRLPGGVITTKQWQAIDKFAGENTIYGSIRLTNRQTFQFHGILKKNVKPVHQMLHSVGLDALATANDMNRNVLCTSNPYESQLHAEAYEWAKKISEHLLPRTRAYAEIWLDQEKVATTDEEPILGQTYLPRKFKTTVVIPPQNDIDLHANDMNFVAIAENGKLVGFNLLVGGGLSIEHGNKKTYARTASEFGYLPLEHTLAVAEAVVTTQRDWGNRTDRKNAKTKYTLERVGVETFKAEVERRAGIKFEPIRPYEFTGRGDRIGWVKGIDDNWHLTLFIENGRILDYPARPLKTGLLEIAKIHKGDFRITANQNLIIAGVPESEKAKIEKIAKESGLMNAVTPQRENSMACVSFPTCPLAMAEAERFLPSFIDNIDNLMAKHGVSDEHIVMRVTGCPNGCGRAMLAEVGLVGKAPGRYNLHLGGNRIGTRIPRMYKENITEPEILASLDELIGRWAKEREAGEGFGDFTVRAGIIRPVLDPARDLWD,4.99 ± 0.69,3.79 ± 0.29,2.52 ± 0.056,3.07 ± 0.14,2.55 ± 0.1,2.55 ± 0.13,4.1634 ± 0.0008,5.98 ± 0.51,2.82 ± 0.28,3.73 ± 0.062,3.91 ± 0.24,6.82 ± 0.1
MSEKLQVVTLLGSLRKGSFNGMVARTLPKIAPASMEVNALPSIADIPLYDADVQQEEGFPATVEALAEQIRQADGVVIVTPEYNYSVPGGLKNAIDWLSRLPDQPLAGKPVLIQTSSMGVIGGARCQYHLRQILVFLDAMVMNKPEFMGGVIQNKVDPQTGEVIDQGTLDHLTGQLTAFGEFIQRVKI [P0AGE6],6.73 ± 1.1,5.46 ± 0.56,5.61 ± 0.31,5.83 ± 0.28,5.24 ± 0.12,3.116 ± 0.014,5.74 ± 0.21,11.1 ± 0.21,5.27 ± 0.43,9.39 ± 0.36,5.31 ± 0.077,12.1 ± 0.48
MSELIVSRQQRVLLLTLNRPAARNALNNALLMQLVNELEAAATDTSISVCVITGNARFFAAGADLNEMAEKDLAATLNDTRPQLWARLQAFNKPLIAAVNGYALGAGCELALLCDVVVAGENARFGLPEITLGIMPGAGGTQRLIRSVGKSLASKMVLSGESITAQQAQQAGLVSDVFPSDLTLEYALQLASKMARHSPLALQAAKQALRQSQEVALQAGLAQERQLFTLLAATEDRHEGISAFLQKRTPDFKGR,5.63,,,,,2.67,,6.46,,,,6.46
MSELKISPELLQISPEVQDALKNKKPVVALESTIISHGMPFPQNAQTAIEVEETIRKQGAVPATIAIIGGVMKVGLSKEEIELLGREGHNVTKVSRRDLPFVVAAGKNGATTVASTMIIAALAGIKVFATGGIGGVHRGAEHTFDISADLQELANTNVTVVCAGAKSILDLGLTTEYLETFGVPLIGYQTKALPAFFCRTSPFDVSIRLDSASEIARAMVVKWQSGLNGGLVVANPIPEQFAMPEHTINAAIDQAVAEAEAQGVIGKESTPFLLARVAELTGGDSLKSNIQLVFNNAILASEIAKEYQRLAG,,,,,1.52 ± 0.068,2.56 ± 0.11,4.42 ± 0.53,6.33 ± 0.81,,,,4.2
MSELLSFALFLASVLIYAWKAGRNTWWFAATLTVLGLFVVLNITLFASDYFTGDGINDAVLYTLTNSLTGAGVSKYILPGIGIVLGLTAVFGALGWILRRRRHHPHHFGYSLLALLLALGSVDASPAFRQITELVKSQSRDGDPDFAAYYKEPSKTIPDPKLNLVYIYGESLERTYFDNEAFPDLTPELGALKNEGLDFSHTQQLPGTDYTIAGMVASQCGIPLFAPFEGNASASVSSFFPQNICLGDILKNSGYQNYFVQGANLRFAGKDVFLKSHGFDHLYGSEELKSVVADPHYRNDWGFYDDTVLDEAWKKFEELSRSGQRFSLFTLTVDTHHPDGFISRTCNRKKYDFDGKPNQSFSAVSCSQENIATFINKIKASPWFKDTVIVVSSDHLAMNNTAWKYLNKQDRNNLFFVIRGDKPQQETLAVKRNTMDNGATVLDILGGDNYLGLGRSSLSGQSMSEIFLNIKEKTLAWKPDIIRLWKFPKEMKEFTIDQQKNMIAFSGSHFRLPLLLRVSDKRVEPLPESEYSAPLRFQLADFAPRDNFVWVDRCYKMAQLWAPELALSTDWCVSQGQLGGQQIVQHVDKTTWQGKTAFKDTVIDMARYKGNVDTLKIVDNDIRYKADSFIFNVAGAPEEVKQFSGISRPESWGRWSNAQLGDEVKIEYKHPLPKKFDLVITAKAYGNNASRPIPVRVGNEEQTLVLGNEVTTTTLHFDNPTDADTLVIVPPEPVSTNEGNILGHSPRKLGIGMVEIKVVEREG,4.02 ± 0.17,2.98 ± 0.2,3.42 ± 0.56,4.63 ± 0.46,3.47 ± 0.035,2.17 ± 0.05,2.99 ± 0.12,3.93 ± 0.84,3.35 ± 0.42,4.45 ± 0.4,,
MSEMTPREIVSELDKHIIGQDNAKRSVAIALRNRWRRMQLNEELRHEVTPKNILMIGPTGVGKTEIARRLAKLANAPFIKVEATKFTEVGYVGKEVDSIIRDLTDAAVKMVRVQAIEKNRYRAEELAEERILDVLIPPAKNNWGQTEQQQEPSAARQAFRKKLREGQLDDKEIEIDLAAAPMGVEIMAPPGMEEMTSQLQSMFQNLGGQKQKARKLKIKDAMKLLIEEEAAKLVNPEELKQDAIDAVEQHGIVFIDEIDKICKRGESSGPDVSREGVQRDLLPLVEGCTVSTKHGMVKTDHILFIASGAFQIAKPSDLIPELQGRLPIRVELQALTTSDFERILTEPNASITVQYKALMATEGVNIEFTDSGIKRIAEAAWQVNESTENIGARRLHTVLERLMEEISYDASDLSGQNITIDADYVSKHLDALVADEDLSRFIL [P0A6H5],5.09 ± 0.28,5.18 ± 0.56,4.46 ± 0.12,5.23 ± 0.29,4.21 ± 0.085,2.95 ± 0.36,5.94 ± 0.93,10.3 ± 0.44,4.79 ± 0.11,8.11 ± 0.2,5.29 ± 0.054,10.98 ± 0.036
